Experimental findings from US20240109974A1 (SHANDONG SIMCERE BIOPHARMACEUTICAL, published 2024) are described below.

In test [1] the target is T1, human TNFR2 on the surface of CHO-TNFR2 cells (human, UniProt P20333 23-461).
T1 construct: whole, on cells
T1 sequence (looked up): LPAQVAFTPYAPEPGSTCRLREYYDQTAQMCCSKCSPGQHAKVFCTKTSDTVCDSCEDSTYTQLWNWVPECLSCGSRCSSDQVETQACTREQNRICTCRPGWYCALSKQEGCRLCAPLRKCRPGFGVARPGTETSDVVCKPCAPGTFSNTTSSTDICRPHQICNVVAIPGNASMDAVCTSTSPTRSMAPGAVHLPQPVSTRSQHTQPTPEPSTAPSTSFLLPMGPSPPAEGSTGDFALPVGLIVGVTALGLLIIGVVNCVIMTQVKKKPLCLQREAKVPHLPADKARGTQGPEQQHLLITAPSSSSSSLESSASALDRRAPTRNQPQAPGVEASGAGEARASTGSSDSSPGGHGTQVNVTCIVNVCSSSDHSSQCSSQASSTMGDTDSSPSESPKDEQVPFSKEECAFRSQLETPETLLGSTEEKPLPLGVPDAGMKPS
In words: flow cytometry on CHO-TNFR2 cells; area under the MFI fold curve. How it is done:
The transfected full-length plasmid of human TNFR2 was purchased from Sino Biological (Cat #HG10417-UT, NCBI Ref Seq: NM_001066.2). The experiment was conducted at a cell density within 80%. The cell medium was discarded; the cells were rinsed with PBS, and digested with 1 ml trypsin for 2 minutes; the digestion was stopped with a Ham's F12 complete medium containing 10% FBS, and then a cell suspension was made. The cell suspension was counted, and then an appropriate amount of cell suspension was centrifuged at 350×g; the supernatant was discarded; a corresponding volume of blocking solution (10% FBS+PBS) at a density of 1×10⁷ cells/ml was added to resuspend the cells, and the mixture was incubated at 4° C. for 30 minutes. After the incubation, the mixture was centrifuged at 350×g to remove the supernatant, and the cells were resuspended in a staining buffer (2% FBS+PBS) to a density of 2×10⁶ cells/ml, and spread onto a 96-well plate, with 50 μl of cell suspension added to each well for later use. The antibody was diluted with PBS for 10-fold gradient dilution from the highest concentration of 20 μg/m (twice the concentration); the diluted antibody was added to the well containing 50 μl of cell suspension, and placed on a microplate shaker for shaking at 500 rpm for 1 minute, so that the antibody was fully mixed with the cells; the mixture was incubated at 4° C. for 1 h. After the incubation, the cells were washed twice with the staining buffer, with 100 μl per well, and centrifuged at 350-g for 5 minutes, and the supernatant was discarded. The PE goat anti-Human IgG Fc antibody (ebioscience, Cat #12-4998-82) was diluted 250-fold with the staining buffer, with a volume of 100 μl per well added to the washed cell wells; the mixture was mixed evenly, and stained at 4° C. for 30 minutes. After the staining, similarly, the cells were washed twice with the staining buffer; finally, the cells were resuspended in 200 μl of staining buffer; signals were detected by a flow cytometer (Thermo Attune NxT). The stronger the signal, the stronger the binding ability of an antibody to TNFR2. The binding curve of an antibody was drawn with antibody concentration as the abscissa and corresponding mean fluorescence intensity (MFI) fold as the ordinate, and fitted with four parameters (GraphPad Prism9) to calculate the EC50 value.
In general terms: In flow cytometry, cells or beads pass a laser one at a time.

Test [2] addresses T2, human TNFR2 (Novoprotein, Cat #C830) (human, UniProt P20333 23-257, limits assumed).
T2 construct: construct not described; also called human TNFR2 protein
T2 sequence (looked up): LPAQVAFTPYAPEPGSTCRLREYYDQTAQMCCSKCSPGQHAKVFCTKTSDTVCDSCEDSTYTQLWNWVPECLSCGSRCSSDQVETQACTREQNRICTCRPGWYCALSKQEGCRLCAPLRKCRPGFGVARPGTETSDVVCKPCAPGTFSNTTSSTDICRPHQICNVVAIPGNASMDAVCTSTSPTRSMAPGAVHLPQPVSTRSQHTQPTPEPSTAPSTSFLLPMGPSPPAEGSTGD
In words: competition ELISA, human TNFR2 coated, competitor human TNFα-Biotin. As to the method: (§1) 1 μg/ml human TNFR2 (Novoprotein, Cat #C830) was pre-coated with 100 μl/well […] in an ELISA plate. All the test TNFR2 antibodies were subjected to 2.5-fold gradient dilution from the highest concentration of 30 μg/ml; the diluted antibodies were mixed with 15 ng/ml human TNFα-Biotin (Acro Biosystem, Cat #TNA-H82E3) in equal volume, respectively; the resulting mixture was added to the ELISA plate at 100 μl/well, and incubated with shaking at room temperature for 2.0 hours. The plate was washed, and then a Streptavidin-HRP working solution (diluted at 1:10000) was added at 100 μl/well, and the mixture was incubated with shaking at room temperature for 40 minutes. The plate was washed again, and then the substrate TMB of HRP was added to develop colour. A stop solution was added to stop the reaction, and then a microplate reader (MD 13) was used to read the absorbance value. The inhibitory curve of an antibody was drawn with antibody concentration as the abscissa and corresponding OD value as the ordinate, and fitted with four parameters (GraphPad Prism9) to calculate the IC50 value. The smaller the IC50 value, the stronger the ability of an antibody to inhibit the binding of human TNFα to human TNFR2. The blocking effect of a humanized antibody was normalized to its corresponding human-murine chimeric antibody WT. The higher the percentage value, the better the inhibitory effect of the humanized antibody.
In general terms: In an ELISA, binding on a coated surface is turned into a signal by an enzyme label.

Test [3] addresses T2, human TNFR2 (Novoprotein, Cat #C830). In words: competition ELISA, competitor human TNFα-Biotin; area under the OD curve. How it is done:
as §1

B1: 224-WT (antibody, V domains shown)
VH: EVQLQESGPEIVKPGASVKLSCTASGFNNKDIYMHWVKQRPEQGLEWIGRIDPATGNTKHDPKFQDKATLSSDTSSNTAYLQFSSLTSEDTAVYYCAHSPYGDFGAMDYWGQGTTVTVSS
VL: DIQMTQSPAIMSASLGERVTMTCTASSSVSSNYLHWYQQKPGSSPKLWIYSTSNLPSGVPARFSGSGSGTSYSLTISSMEAEDAATYYCHQYHRSPWTFGGGTKLEIK
notes: Human-murine chimeric wild-type molecule; also called human-murine chimeric antibody WT of #224
As for B1, in test [1], the AUC was found to be 667.

B2: 001-WT (antibody, V domains shown)
VH: EVQLQESGGGLVQPGGSLNLSCAASGFAFSTYDLSWVRQTPEKRLEWVAYINNGGISTYYSDTVKGRFTISRDNAKNTLYLQMSSLKSEDTAMYYCVRGPFYGSANYFDYWGQGTTVTVSS
VL: EIVMTQSPASLSLSVGETVTITCRTSESIYSNLPWYQQKQGKSPQLLVYDATKLAEGVPSRFSGSESGTQYSLKINSLQSEDFGTYYCQHFWVTPWTFGGGTKLEIK
notes: Human-murine chimeric wild-type molecule; also called human-murine chimeric antibody WT of #001
Molecule B2 showed an AUC in test [1] of 490.

B3: 001-Hu5 (antibody, V domains shown)
VH: EVQLVESGGGLVQPGGSLRLSCAASGFAFSTYDLSWVRQAPGKGLEWVAYINNGGISTYYSDTVKGRFTISRDNAKNTLYLQMNSLRAEDTAVYYCVRGPFYGSANYFDYWGQGTLVTVSS
VL: DIQMTQSPSSLSASVGDRVTITCRTSESIYSNLPWYQQKPGKSPKLLVYDATKLAEGVPSRFSGSGSGTDYTLTISSLQPEDFATYYCQHFWVTPWTFGQGTKVEIK
notes: Humanized form of #001; also called VH1 + VL4
Regarding B3, the AUC in test [1] turned out to be 431; in test [3] it was 8.02. Moreover, the 50% inhibitory concentration (IC50) in test [2] stood at 0.656 µg/mL.

B4: 001-Hu2 (antibody, V domains shown)
VH: EVQLVESGGGLVQPGGSLRLSCAASGFAFSTYDLSWVRQAPGKGLEWVAYINNGGISTYYSDTVKGRFTISRDNAKNSLYLQMNSLRAEDTAVYYCVRGPFYGSANYFDYWGQGTLVTVSS
VL: DIQMTQSPSSLSASVGDRVTITCRTSESIYSNLPWYQQKPGKSPKLLIYDATKLAEGVPSRFSGSGSGTDFTLTISSLQPEDFATYYCQHFWVTPWTFGQGTKVEIK
notes: Humanized form of #001; also called VH2 + VL2
As to B4, the AUC in test [1] came to 433; in test [3], 8.1. Also, in test [2], the IC50 worked out at 0.78 µg/mL.

B5: 001-Hu1 (antibody, V domains shown)
VH: EVQLVESGGGLVQPGGSLRLSCAASGFAFSTYDLSWVRQAPGKGLEWVAYINNGGISTYYSDTVKGRFTISRDNAKNTLYLQMNSLRAEDTAVYYCVRGPFYGSANYFDYWGQGTLVTVSS
VL: DIQMTQSPSSLSASVGDRVTITCRTSESIYSNLPWYQQKPGKAPKLLLYDATKLAEGVPSRFSGSGSGTDYTLTISSLQPEDFATYYCQHFWVTPWTFGQGTKVEIK
notes: Humanized form of #001; also called VH1 + VL1
On to B5, for which the AUC amounted to 458 in test [1] and 7.63 in test [3]. Besides, in test [2], the half-maximal inhibitory concentration (IC50) worked out at 0.573 µg/mL.

B6: 001-Hu4 (antibody, V domains shown)
VH: EVQLVESGGGLVQPGGSLRLSCAASGFAFSTYDLSWVRQAPGKGLEWVAYINNGGISTYYSDTVKGRFTISRDNAKNSLYLQMNSLRAEDTAVYYCVRGPFYGSANYFDYWGQGTLVTVSS
VL: DIQMTQSPSSLSASVGDRVTITCRTSESIYSNLPWYQQKPGKSPKLLVYDATKLAEGVPSRFSGSGSGTDYTLTISSLQPEDFATYYCQHFWVTPWTFGQGTKVEIK
notes: Humanized form of #001; also called VH2 + VL4
Consider B6, for which the AUC in test [1] was found to be 452; in test [3], 7.86. This molecule showed a half-inhibitory concentration (IC50) in test [2] of 0.59 µg/mL.

B7: 001-Hu3 (antibody, V domains shown)
VH: EVQLVESGGGLVQPGGSLRLSCAASGFAFSTYDLSWVRQAPGKGLEWVAYINNGGISTYYSDTVKGRFTISRDNAKNTLYLQMNSLRAEDTAVYYCVRGPFYGSANYFDYWGQGTLVTVSS
VL: DIQMTQSPSSLSASVGDRVTITCRTSESIYSNLPWYQQKPGKAPKLLIYDATKLAEGVPSRFSGSGSGTDYTLTISSLQPEDFATYYCQHFWVTPWTFGQGTKVEIK
notes: Humanized form of #001; also called VH1 + VL3
B7: the AUC was found to be 431 in test [1] and 7.87 in test [3]. Besides, the IC50 in test [2] came out at 0.597 µg/mL.

B8: 219-WT (antibody, V domains shown)
VH: EVQLQESGAELVRPGASVKLSCKASGYSFTNYWMNWVKQRPGQGLEWIGMIHPSDTETRLNQNFKDKATLTVDKSSSTSYMQLSSPTSEDSAVYYCARGEGLGAARSVSMDYWGQGTTVTVSS
VL: DILMTQSPSSLSASLGDRVTISCRASQDISNYLNWYQQKPDGTVKVLIYYTAILHSGVPSRFSGSGSGTDYSLTISNLEQEDIATYFCQQGNTLPWTFGGGTKLEIK
notes: Human-murine chimeric wild-type molecule
For the molecule B8, the AUC in test [1] turned out to be 516.

B9: 219-Hu3 (antibody, V domains shown)
VH: QVQLVQSGAEVKKPGSSVKVSCKASGYSFTNYWMNWVRQAPGQGLEWMGMIHPSDTETRLNQNFKDRVTITADKSTSTAYMELSSLRSEDTAVYYCARGEGLGAARSVSMDYWGQGTLVTVSS
VL: DIQMTQSPSSLSASVGDRVTITCRASQDISNYLNWYQQKPDGTVKLLIYYTAILHSGVPSRFSGSGSGTDYSLTISSLQPEDFATYFCQQGNTLPWTFGQGTKVEIK
notes: also called VH5 + VL5
Take B9: the AUC came to 497 in test [1] and 8.16 in test [3]. The molecule also showed an IC50 in test [2] of 0.545 µg/mL.

B10: 219-Hu1 (antibody, V domains shown)
VH: QVQLVQSGAEVKKPGASVKVSCKASGYSFTNYWMNWVRQAPGQRLEWMGMIHPSDTETRLNQNFKDRVTITRDTSASTAYMELSSLRSEDTAVYYCARGEGLGAARSVSMDYWGQGTLVTVSS
VL: DIQMTQSPSSLSASVGDRVTITCRASQDISNYLNWYQQKPDGTVKLLIYYTAILHSGVPSRFSGSGSGTDYSLTISSLQPEDFATYFCQQGNTLPWTFGQGTKVEIK
notes: also called VH3 + VL5
Turning to B10, the AUC in test [1] is 565; in test [3], 7.92. In test [2], this molecule had a half-inhibitory concentration (IC50) of 0.49 µg/mL.

B11: 219-Hu2 (antibody, V domains shown)
VH: QVQLVQSGAEVKKPGSSVKVSCKASGYSFTNYWMNWVRQAPGQGLEWMGMIHPSDTETRLNQNFKDKATITADKSTSTAYMELSSLRSEDTAVYYCARGEGLGAARSVSMDYWGQGTLVTVSS
VL: DIQMTQSPSSLSASVGDRVTITCRASQDISNYLNWYQQKPDGTVKLLIYYTAILHSGVPSRFSGSGSGTDYSLTISSLQPEDFATYFCQQGNTLPWTFGQGTKVEIK
notes: also called VH4 + VL5
In the case of B11, the AUC is 534 in test [1] and 7.82 in test [3]. In test [2], this molecule registered an IC50 of 0.472 µg/mL.

B12: 219-Hu4 (antibody, V domains shown)
VH: QVQLVQSGAEVKKPGSSVKVSCKASGYSFTNYWMNWVKQAPGQGLEWIGMIHPSDTETRLNQNFKDKATLTVDKSTSTAYMELSSLRSEDTAVYYCARGEGLGAARSVSMDYWGQGTLVTVSS
VL: DIQMTQSPSSLSASVGDRVTITCRASQDISNYLNWYQQKPDGTVKLLIYYTAILHSGVPSRFSGSGSGTDYSLTISSLQPEDFATYFCQQGNTLPWTFGQGTKVEIK
notes: also called VH6 + VL5
Turning to B12, the AUC in test [1] was found to be 493; in test [3], 7.66. In test [2], this molecule had a 50% inhibitory concentration (IC50) of 0.606 µg/mL.

For orientation: IC50 means the midpoint of a concentration-inhibition curve.
